{
  "source": "paper PMC7168936",
  "proteins": {"B1": {"name": "PSAT1 (Homo sapiens) (protein)", "chain": "MDAPRQVVNFGPGPAKLPHSVLLEIQKELLDYKGVGISVLEMSHRSSDFAKIINNTENLVRELLAVPDNYKVIFLQGGGCGQFSAVPLNLIGLKAGRCADYVVTGAWSAKAAEEAKKFGTINIVHPKLGSYTKIPDPSTWNLNPDASYVYYCANETVHGVEFDFIPDVKGAVLVCDMSSNFLSKPVDVSKFGVIFAGAQKNVGSAGVTVVIVRDDLLGFALRECPSVLEYKVQAGNSSLYNTPPCFSIYVMGLVLEWIKNNGGAAAMEKLSSIKSQTIYEIIDNSQGFYVCPVEPQNRSKMNIPFRIGNAKGDDALEKRFLDKALELNMLSLKGHRSVGGIRASLYNAVTIEDVQKLAAFMKKFLEMHQL"}},
  "substrate": "N[C@@H](COP(=O)(O)O)C(=O)O",
  "test": "purified protein, by the assay type",
  "conditions": "other: substrates of PSAT1, optimized conditions; pH 8.5",
  "data": [
    {"protein": "B1", "values": [
      {"measurement": "Km", "result": "25.1 ± 5.3", "unit": "μM μM"}
    ]}
  ]
}
